Values belong to the molecule of their own block, whether it stands above or below them.
Columns and labels:
[1] = molecular target: T1, Replication Protein A (RPA), 70 kDa subunit RPA1 (Homo sapiens, UniProt P27694); experiment: RPAi titration of purified Um-RPA binding to ssDNA (gel data, Fig. S6)
T1 construct: Full-length human (h)RPA heterotrimer, unmodified (Um-RPA); with RPA2 and RPA3 (RPA heterotrimer)

[2] = molecular target: T2, Um-RPA (unmodified RPA heterotrimer) (Homo sapiens, UniProt P27694;P15927;P35244 1-616;1-270;1-121); experiment: BLI; KD only in Fig. 4D; higher KD than Ac-RPA; EMSA: 50 mM Tris-HCl pH 8.0, 2 mM DTT, 30 mM NaCl, 0.1 mg/ml BSA, 5% glycerol, 10 min 37 °C; FEN1/RPA flap EMSA: same with 20 mM NaCl, 20 uM EDTA; BLI: 1X HAT buffer, 31.25-250 nM RPA; settings: protein: recombinant; copies: 1;1;1; label: 3'-biotin (BLI); 5'-32P (EMSA); single strand
T2 sequence (P27694 whole entry, chain 1 of 3): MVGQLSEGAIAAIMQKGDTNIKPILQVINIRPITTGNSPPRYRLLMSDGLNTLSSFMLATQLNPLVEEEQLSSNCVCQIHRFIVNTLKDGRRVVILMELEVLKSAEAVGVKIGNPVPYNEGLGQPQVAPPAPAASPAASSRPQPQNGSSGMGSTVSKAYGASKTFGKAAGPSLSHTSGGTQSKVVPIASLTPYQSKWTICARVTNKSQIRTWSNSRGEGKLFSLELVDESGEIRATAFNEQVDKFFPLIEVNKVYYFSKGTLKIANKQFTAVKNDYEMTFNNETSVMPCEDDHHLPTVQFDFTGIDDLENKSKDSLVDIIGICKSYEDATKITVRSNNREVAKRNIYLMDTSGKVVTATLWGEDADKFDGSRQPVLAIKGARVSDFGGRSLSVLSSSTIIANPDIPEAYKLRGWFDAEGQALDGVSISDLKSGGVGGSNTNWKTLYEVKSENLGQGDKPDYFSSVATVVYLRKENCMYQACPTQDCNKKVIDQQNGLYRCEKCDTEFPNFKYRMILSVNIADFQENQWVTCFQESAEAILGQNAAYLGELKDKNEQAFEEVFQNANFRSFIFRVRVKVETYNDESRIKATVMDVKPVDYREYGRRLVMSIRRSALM
T2 sequence (P15927 whole entry, chain 2 of 3): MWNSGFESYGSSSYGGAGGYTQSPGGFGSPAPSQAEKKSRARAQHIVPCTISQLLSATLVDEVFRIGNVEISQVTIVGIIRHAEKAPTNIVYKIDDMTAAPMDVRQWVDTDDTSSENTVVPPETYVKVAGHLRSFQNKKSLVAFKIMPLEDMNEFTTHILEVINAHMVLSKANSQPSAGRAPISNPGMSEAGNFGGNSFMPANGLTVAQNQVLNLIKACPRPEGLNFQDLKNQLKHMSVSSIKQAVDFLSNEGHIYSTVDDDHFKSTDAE
T2 sequence (P35244 whole entry, chain 3 of 3): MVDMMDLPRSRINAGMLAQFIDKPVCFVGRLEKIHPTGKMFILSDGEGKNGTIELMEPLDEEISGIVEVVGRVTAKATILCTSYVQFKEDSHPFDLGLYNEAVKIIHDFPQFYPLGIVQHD

[3] = molecular target: T2, Um-RPA (unmodified RPA heterotrimer); experiment: BLI; KD only in Fig. 4D; smallest fold difference to Ac-RPA; EMSA: 50 mM Tris-HCl pH 8.0, 2 mM DTT, 30 mM NaCl, 0.1 mg/ml BSA, 5% glycerol, 10 min 37 °C; FEN1/RPA flap EMSA: same with 20 mM NaCl, 20 uM EDTA; BLI: 1X HAT buffer, 31.25-250 nM RPA; settings: protein: recombinant; copies: 1;1;1; label: 3'-biotin (BLI); 5'-TAMRA (EMSA); single strand
[4] = molecular target: RPA1 DBD-F, unmodified (Homo sapiens, UniProt P27694 1-180); experiment: EMSA; 25-150 nM protein, 25 nM DNA; EMSA: 50 mM Tris-HCl pH 8.0, 2 mM DTT, 30 mM NaCl, 0.1 mg/ml BSA, 5% glycerol, 10 min 37 °C; FEN1/RPA flap EMSA: same with 20 mM NaCl, 20 uM EDTA; BLI: 1X HAT buffer, 31.25-250 nM RPA; settings: protein: recombinant; tags: C-terminal His6; label: 5'-TAMRA; single strand
RPA1 DBD-F, unmodified, sequence (P27694 1-180): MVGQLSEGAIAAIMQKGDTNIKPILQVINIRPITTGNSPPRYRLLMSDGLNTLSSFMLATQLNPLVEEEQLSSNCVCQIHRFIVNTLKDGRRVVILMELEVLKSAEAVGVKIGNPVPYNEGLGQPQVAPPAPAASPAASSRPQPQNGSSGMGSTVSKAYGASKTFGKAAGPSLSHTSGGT

[5] = molecular target: FEN1 (UniProt P39748 1-380); experiment: EMSA; 50 nM FEN1, 20 uM EDTA; high-affinity binding; EMSA: 50 mM Tris-HCl pH 8.0, 2 mM DTT, 30 mM NaCl, 0.1 mg/ml BSA, 5% glycerol, 10 min 37 °C; FEN1/RPA flap EMSA: same with 20 mM NaCl, 20 uM EDTA; BLI: 1X HAT buffer, 31.25-250 nM RPA; settings: protein: recombinant; double flap: 20 nt 5' flap (strand 2), 1 nt 3' flap (strand 3); 1:2 1:3; 1 nt 5' overhang on strand 1
FEN1, sequence (P39748 whole entry): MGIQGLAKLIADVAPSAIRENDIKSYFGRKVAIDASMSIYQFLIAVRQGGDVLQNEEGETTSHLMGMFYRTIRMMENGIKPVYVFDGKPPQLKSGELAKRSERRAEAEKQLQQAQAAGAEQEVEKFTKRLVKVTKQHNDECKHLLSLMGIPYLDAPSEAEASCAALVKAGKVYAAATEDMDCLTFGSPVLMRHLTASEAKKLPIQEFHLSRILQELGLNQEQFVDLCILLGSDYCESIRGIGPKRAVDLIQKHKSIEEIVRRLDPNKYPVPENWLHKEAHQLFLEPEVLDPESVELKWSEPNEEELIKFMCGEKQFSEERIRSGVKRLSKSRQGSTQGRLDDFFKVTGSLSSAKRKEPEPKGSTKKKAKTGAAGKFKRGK

T1 sequence (P27694 whole entry): as the sequence (P27694 whole entry, chain 1 of 3) above
T1 sequence (P15927 whole entry partner): as the sequence (P15927 whole entry, chain 2 of 3) above
T1 sequence (P35244 2-121 partner): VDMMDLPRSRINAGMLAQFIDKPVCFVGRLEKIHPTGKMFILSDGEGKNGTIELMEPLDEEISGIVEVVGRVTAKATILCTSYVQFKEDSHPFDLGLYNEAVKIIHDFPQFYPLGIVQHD

IC50 [1]: 4.46 ± 0.11 µM
Molecule: CCOc1ccc2cc(C3CC(c4ccc(I)cc4)=NN3C(=O)CCCC(=O)O)c(Cl)nc2c1 (stereo not shown) [TDRL-551]

IC50 [1]: 6.43 ± 0.29 µM
Molecule: DA1-73

Molecule: TTCACGCCTGTTAGTTAATTCACTGGCCGTAC (ssDNA) [LB.32 (32 nt)]
binding result [2]: binds

Molecule: TTCACTATAACTACCTAATCTTCTGGCCGTACTGAACTACTGACA (ssDNA) [LB.45 (45 nt)]
binding result [3]: binds

Molecule: TTCACGAGATTTACTTATTTCACTGCGGCT (ssDNA) [LB.30 (30 nt)]
binding result [4]: no binding

B1: 20 nt double flap (U26:D43:T49) (structured_DNA)
DNA 1: GCCCAGTCACGTCGTTGTAAAACGGGTCGTGACTGGGAAAACCCTGGCG
DNA 2: TTAGTTAATTCACTGGCCGTCGTTTTACAACGACGTGACTGGG
DNA 3: CGCCAGGGTTTTCCCAGTCACGACCA
binding result [5]: binds

Molecule: TTCACGCCTGTTAGTTAATTCACTGGCC (ssDNA) [LB.28 (28 nt)]
binding result [2]: binds

Reference: paper PMC12182300, “Biochemical impact of p300-mediated acetylation of replication protein A: Implications for DNA metabolic pathway choice” (The Journal of Biological Chemistry, 2025)
